Positions count from the first letter of the chain named. Names and notes keep the numbering of the source.
B1: FIXa-K247N/N249S/R318Y/R338E/T343R/E410N (protein)
chain 1: YNSGKLEEFVQGNLERECMEEKCSFEEAREVFENTERTTEFWKQYVDGDQCESNPCLNGGSCKDDINSYECWCPFGFEGKNCELDVTCNIKNGRCEQFCKNSADNKVVCSCTEGYRLAENQKSCEPAVPFPCGRVSVSQTSKLTR
chain 2: VVGGEDAKPGQFPWQVVLNGKVDAFCGGSIVNEKWIVTAAHCVETGVKITVVAGEHNIEETEHTEQNRSVIRIIPHHNYNAAINKYNHDIALLELDEPLVLNSYVTPICIADKEYTNIFLKFGSGYVSGWGRVFHKGYSALVLQYLRVPLVDRATCLESTKFRIYNNMFCAGFHEGGRDSCQGDSGGPHVTEVEGTSFLTGIISWGEECAMKGKYGIYTKVSRYVNWIKNKTKLT
B2: FIXa-Y155F/K247N/N249S/R318Y/T343R/E410N (protein)
chain 1: B1 chain 1
chain 2: B1 chain 2 with E158R
B3: FIXa variant I251S/R318Y/R338E/E410N (protein)
chain 1: B1 chain 1
chain 2: B1 chain 2 with N67K, S69N, I71S, R163T
B4: FIXa-K247N/N249S/R338E/T343R/E410N (protein)
chain 1: B1 chain 1
chain 2: B1 chain 2 with Y138R
B5: FIXa-Y155F/K247N/N249S/R338E/T343R/R403E (protein)
chain 1: B1 chain 1
chain 2: B1 chain 2 with Y138R, R223E, N230E
B6: FIXa variant Y155F/K247N/N249S/R318Y/R338E/E410N (protein)
chain 1: B1 chain 1
chain 2: B1 chain 2 with R163T
B7: FIXa-Y155F/K247N/N249S/R318Y/T343R/R403E (protein)
chain 1: B1 chain 1
chain 2: B1 chain 2 with E158R, R223E, N230E
B8: FIXa variant Y259F/K265T/Y345T (protein)
chain 1: B1 chain 1
chain 2: B1 chain 2 with N67K, S69N, Y79F, K85T, Y138R, E158R, R163T, Y165T, N230E
B9: FIXa-Y155F/K247N/N249S/R338E/E410N (protein)
chain 1: B1 chain 1
chain 2: B1 chain 2 with Y138R, R163T
B10: FIXa-R318Y/R338E/N346Y/R403E/E410N (protein)
chain 1: B1 chain 1
chain 2: B1 chain 2 with N67K, S69N, R163T, N166Y, R223E
B11: FIXa-Y155F/R318Y/R338E/R403E (protein)
chain 1: B1 chain 1
chain 2: B1 chain 2 with N67K, S69N, R163T, R223E, N230E
B12: FIXa variant I251S/R318Y/R338E/R403E/E410N (protein)
chain 1: B1 chain 1
chain 2: B1 chain 2 with N67K, S69N, I71S, R163T, R223E
B13: FIXa-D104N/K106S/R318Y/R338E/T343R/R403E/E410N (protein)
chain 1: B1 chain 1 with D104N, K106S
chain 2: B1 chain 2 with N67K, S69N, R223E
B14: FIXa-Y155F/R318Y/R403E/E410N (protein)
chain 1: B1 chain 1
chain 2: B1 chain 2 with N67K, S69N, E158R, R163T, R223E
B15: FIXa-D104N/K106S/K228N/K247N/N249S/R318Y/R338E/R403E/E410N (protein)
chain 1: B1 chain 1 with D104N, K106S
chain 2: B1 chain 2 with K48N, R163T, R223E
B16: FIXa variant Y155F/I251S/R318Y/R338E/R403E/E410N (protein)
chain 1: B1 chain 1
chain 2: B1 chain 2 with N67K, S69N, I71S, R163T, R223E
B17: FIXa variant K247N/N249S/R318Y/R338E/E410N (protein)
chain 1: B1 chain 1
chain 2: B1 chain 2 with R163T
B18: FIXa-K247N/N249S/R318Y/T343R/E410N (protein)
chain 1: B1 chain 1
chain 2: B1 chain 2 with E158R
B19: FIXa variant D85N/K228N/R318Y/R338E/R403E/E410N (protein)
chain 1: B1 chain 1 with D85N
chain 2: B1 chain 2 with K48N, N67K, S69N, R163T, R223E
B20: FIXa variant D104N/K106S/Y155F/K247N/N249S/R318Y/R338E/R403E/E410N (protein)
chain 1: B1 chain 1 with D104N, K106S
chain 2: B1 chain 2 with R163T, R223E
B21: FIXa variant Y155F/K228N/R318Y/R338E/R403E/E410N (protein)
chain 1: B1 chain 1
chain 2: B1 chain 2 with K48N, N67K, S69N, R163T, R223E
B22: FIXa-Y155F/K247N/N249S/R338E/T343R/E410N (protein)
chain 1: B1 chain 1
chain 2: B1 chain 2 with Y138R
B23: FIXa-R318Y/R338E/T343R/N346Y/R403E/E410N (protein)
chain 1: B1 chain 1
chain 2: B1 chain 2 with N67K, S69N, N166Y, R223E
B24: FIXa-K247N/N249S/R338E/T343R/R403E (protein)
chain 1: B1 chain 1
chain 2: B1 chain 2 with Y138R, R223E, N230E
B25: FIXa-R318Y/R338E/Y345A/R403E/E410N (protein)
chain 1: B1 chain 1
chain 2: B1 chain 2 with N67K, S69N, R163T, Y165A, R223E
B26: FIXa-Y155F/R338E/R403E/E410N (protein)
chain 1: B1 chain 1
chain 2: B1 chain 2 with N67K, S69N, Y138R, E158R, R163T, R178E, R223E
B27: FIXa-Y155F/K247N/N249S/R318Y/T343R/R403E/E410N (protein)
chain 1: B1 chain 1
chain 2: B1 chain 2 with E158R, R223E
B28: FIXa-K247N/N249S/R318Y/T343R/R403E/E410N (protein)
chain 1: B1 chain 1
chain 2: B1 chain 2 with E158R, R223E
B29: FIXa variant D104N/K106S/K247N/N249S/R318Y/R338E/R403E/E410N (protein)
chain 1: B1 chain 1 with D104N, K106S
chain 2: B1 chain 2 with R163T, R223E
B30: FIXa-Y155F/R318Y/R338E/T343R/R403E/E410N (protein)
chain 1: B1 chain 1
chain 2: B1 chain 2 with N67K, S69N, R223E
B31: FIXa-K247N/N249S/R318Y/T343R/R403E (protein)
chain 1: B1 chain 1
chain 2: B1 chain 2 with E158R, R223E, N230E
B32: FIXa-R318Y/R338E/T343R/N346D/R403E/E410N (protein)
chain 1: B1 chain 1
chain 2: B1 chain 2 with N67K, S69N, N166D, R223E
B33: FIXa variant Y155F/K247N/N249S/R318Y/R338E/R403E/E410N (protein)
chain 1: B1 chain 1
chain 2: B1 chain 2 with R163T, R223E
B34: FIXa variant D104N/K106S/I251S/R318Y/R338E/R403E/E410N (protein)
chain 1: B1 chain 1 with D104N, K106S
chain 2: B1 chain 2 with N67K, S69N, I71S, R163T, R223E
B35: FIXa-Y155F/K247N/N249S/T343R/R403E/E410N (protein)
chain 1: B1 chain 1
chain 2: B1 chain 2 with Y138R, E158R, R223E
B36: FIXa variant K247N/N249S/R318Y/R338E/R403E/E410N (protein)
chain 1: B1 chain 1
chain 2: B1 chain 2 with R163T, R223E

Molecular target: Factor X (FX), P00742
Sequence (P00742 whole entry, looked up): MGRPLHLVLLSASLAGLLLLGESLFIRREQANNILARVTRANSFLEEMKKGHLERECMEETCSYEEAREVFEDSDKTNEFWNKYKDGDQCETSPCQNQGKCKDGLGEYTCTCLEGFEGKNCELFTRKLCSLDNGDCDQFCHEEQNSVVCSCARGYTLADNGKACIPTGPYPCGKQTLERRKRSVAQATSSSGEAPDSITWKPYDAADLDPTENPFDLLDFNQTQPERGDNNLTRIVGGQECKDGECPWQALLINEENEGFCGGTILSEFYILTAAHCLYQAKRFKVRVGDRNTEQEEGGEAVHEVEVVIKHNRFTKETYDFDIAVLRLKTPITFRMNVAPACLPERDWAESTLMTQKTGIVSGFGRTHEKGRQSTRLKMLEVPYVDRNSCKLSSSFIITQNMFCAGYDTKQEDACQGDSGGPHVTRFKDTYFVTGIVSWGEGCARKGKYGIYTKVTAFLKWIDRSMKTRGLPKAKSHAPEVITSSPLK

| Protein | % of WT kcat/KM [%] | KM [nM] | kcat (s^-1) of FX activation by FIXa variant in the Xase complex (FVIIIa, PC/PS vesicles, Ca2+), fluorogenic FXa read-out [s⁻¹] | kcat/KM for FX activation (Xase: FVIIIa, PC/PS vesicles, Ca2+) [M⁻¹ s⁻¹] | kcat [s⁻¹] | further results |
| --- | --- | --- | --- | --- | --- | --- |
| B1 | 687 | 32.8 | 8.8 | 3.2e+08 | – | – |
| B2 | 668 | 38.1 | 8.1 | 3.1e+08 | – | – |
| B3 | – | – | – | – | 6.4 | – |
| B4 | 676 | 27.5 | 7.9 | 3.1e+08 | – | – |
| B5 | 1269 | 25.1 | 14.6 | 5.9e+08 | – | – |
| B6 | – | – | – | – | 4.5 | – |
| B7 | 276 | 60.5 | 7.5 | 1.3e+08 | – | – |
| B8 | – | – | – | – | 1.7 | – |
| B9 | 1009 | 17.7 | 7.3 | 4.7e+08 | – | – |
| B10 | – | – | – | – | – | kcat of FX activation by FIXa (Xase complex with FVIIIa, PC/PS vesicles, Ca2+): 3.4 s⁻¹ |
| B11 | – | – | – | – | 5.1 | – |
| B12 | – | – | – | – | 4.8 | – |
| B13 | – | – | – | – | – | kcat of FX activation by FIXa (Xase complex with FVIIIa, PC/PS vesicles, Ca2+): 5.7 s⁻¹ |
| B14 | – | – | – | – | 2.9 | – |
| B15 | – | – | – | – | – | kcat of FX activation by FIXa (Xase complex with FVIIIa, PC/PS vesicles, Ca2+): 6.1 s⁻¹ |
| B16 | – | – | – | – | 7.2 | – |
| B17 | – | – | – | – | 3.8 | – |
| B18 | 439 | 40.1 | 6.1 | 2e+08 | – | – |

| Protein | % of WT kcat/KM [%] | KM [nM] | kcat (s^-1) of FX activation by FIXa variant in the Xase complex (FVIIIa, PC/PS vesicles, Ca2+), fluorogenic FXa read-out [s⁻¹] | kcat/KM for FX activation (Xase: FVIIIa, PC/PS vesicles, Ca2+) [M⁻¹ s⁻¹] | kcat [s⁻¹] | further results |
| --- | --- | --- | --- | --- | --- | --- |
| B19 | – | – | – | – | 6 | – |
| B20 | – | – | – | – | 6.9 | – |
| B21 | – | – | – | – | 6.7 | – |
| B22 | 391 | 27 | 4.8 | 1.8e+08 | – | – |
| B23 | – | – | – | – | – | kcat of FX activation by FIXa (Xase complex with FVIIIa, PC/PS vesicles, Ca2+): 4.6 s⁻¹ |
| B24 | 1215 | 26.3 | 14.6 | 5.6e+08 | – | catalytic activity (kcat/KM) for activation of FX: improved activity when combined with other mutations |
| B25 | – | – | – | – | – | kcat of FX activation by FIXa (Xase complex with FVIIIa, PC/PS vesicles, Ca2+): 1.4 s⁻¹ |
| B26 | – | – | – | – | 5.9 | – |
| B27 | 350 | 60.6 | 9 | 1.6e+08 | – | – |
| B28 | 279 | 80.5 | 9.5 | 1.3e+08 | – | – |
| B29 | – | – | – | – | 5.2 | – |
| B30 | – | – | – | – | – | kcat of FX activation by FIXa (Xase complex with FVIIIa, PC/PS vesicles, Ca2+): 7.8 s⁻¹ |
| B31 | 84 | 105 | 3.7 | 3.9e+07 | – | – |
| B32 | – | – | – | – | – | kcat of FX activation by FIXa (Xase complex with FVIIIa, PC/PS vesicles, Ca2+): 5.4 s⁻¹ |
| B33 | – | – | – | – | 6.2 | – |
| B34 | – | – | – | – | 5.5 | – |
| B35 | 635 | 52 | 15 | 2.9e+08 | – | – |
| B36 | – | – | – | – | 5.8 | – |
